# From article PMC12038257, “The transcription factor MdWRKY9 is involved in jasmonic acid-mediated salt stress tolerance in apple”
# Target: MdWRKY9 (Malus domestica (apple)?, UniProt D9ZJG3 1-520)
# Assay: EMSA; EMSA buffer, salt, pH and temperature not given (refers to earlier method, ref. 35); GST added to equalize protein in JAZ assays
# Conditions: protein: recombinant; tags: His (pET32a(+)); label: 3' biotin; blunt
# Chain of MdWRKY9 (D9ZJG3 entry or part of it): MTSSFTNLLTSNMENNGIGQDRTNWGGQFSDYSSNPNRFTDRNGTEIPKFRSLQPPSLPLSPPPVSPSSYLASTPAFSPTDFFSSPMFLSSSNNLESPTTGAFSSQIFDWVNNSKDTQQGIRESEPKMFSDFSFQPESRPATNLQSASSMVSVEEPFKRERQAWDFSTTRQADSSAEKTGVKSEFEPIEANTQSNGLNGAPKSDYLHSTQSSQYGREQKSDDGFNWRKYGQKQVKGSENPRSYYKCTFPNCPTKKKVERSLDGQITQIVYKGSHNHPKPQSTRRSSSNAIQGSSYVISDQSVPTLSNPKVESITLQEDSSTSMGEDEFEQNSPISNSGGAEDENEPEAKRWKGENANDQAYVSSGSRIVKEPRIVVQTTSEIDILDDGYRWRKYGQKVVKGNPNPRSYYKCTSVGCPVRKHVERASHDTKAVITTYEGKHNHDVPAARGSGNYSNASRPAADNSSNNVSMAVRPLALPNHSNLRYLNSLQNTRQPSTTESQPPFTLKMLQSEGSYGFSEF
row,Binder,binding result
1,MdNHX1 W-box W1 (-1255) (dsDNA) DNA 1: ATCATATTTTTACACTAAAAAGTCAATCTTGGTACTATTTATCTTA DNA 2: TAAGATAAATAGTACCAAGATTGACTTTTTAGTGTAAAAATATGAT,binds
2,"MdSOS2 W-box W2 (-149), probe 1 (dsDNA) DNA 1: TCACAGCCACGTGAATTGAATTGACCAATTTTCCAATTCTGTTTAT DNA 2: ATAAACAGAATTGGAAAATTGGTCAATTCAATTCACGTGGCTGTGA",binds
3,"MdSOS2 W-box W3 (-303), probe 2 (dsDNA) DNA 1: TATGAAAACTGGAACTTGGGTTGACTGAATTTACTTCTAATTTCAT DNA 2: ATGAAATTAGAAGTAAATTCAGTCAACCCAAGTTCCAGTTTTCATA",binds
4,"MdSOS3 W-box probe 1 (W4, -127) (dsDNA) DNA 1: TAGTGAAGCACATCCGCTCTAGTCAAAGCAGCTACGCTCACGCGTG DNA 2: CACGCGTGAGCGTAGCTGCTTTGACTAGAGCGGATGTGCTTCACTA",no binding
5,MdNHX1 W1 mutant probe (dsDNA) DNA 1: ATCATATTTTTACACTAAAAAGGAAATCTTGGTACTATTTATCTTA DNA 2: TAAGATAAATAGTACCAAGATTTCCTTTTTAGTGTAAAAATATGAT,no binding
6,MdSOS2 W2 mutant probe (dsDNA) DNA 1: TCACAGCCACGTGAATTGAATTTCCCAATTTTCCAATTCTGTTTAT DNA 2: ATAAACAGAATTGGAAAATTGGGAAATTCAATTCACGTGGCTGTGA,no binding
7,MdSOS2 W3 mutant probe (dsDNA) DNA 1: TATGAAAACTGGAACTTGGGTTTCCTGAATTTACTTCTAATTTCAT DNA 2: ATGAAATTAGAAGTAAATTCAGGAAACCCAAGTTCCAGTTTTCATA,no binding
